Measurements from PMC3408336.

How the values were obtained:
[1] = biological target: CD4 mimetic miniprotein M48U1; test: fluorescence polarization; settings: read off a plot
[2] = biological target: SF162 gp120 S375N (HIV-1 SF162 (subtype B)); test: fluorescence polarisation; fluorescently labelled M48 or M48U1 with purified monomeric recombinant SF162 gp120 (concentrations standardised by ELISA with D7324); LJL Analyst reader; Kd by non-linear regression; results given as fold increase in Kd relative to native SF162 gp120; as in ref. 68
[3] = biological target: SF162 gp120 G335R (HIV-1 SF162 (subtype B)); test: as above
[4] = biological target: SF162 gp120 D474N (HIV-1 SF162 (subtype B)); test: as above
[5] = biological target: SF162 gp120 L494V (HIV-1 SF162 (subtype B)); test: as above

| Substance | ratio to parent [1] | further results |
| --- | --- | --- |
| SF162 gp120, wild type (monomeric recombinant) S375R | 1900 | – |
| SF162 gp120, wild type (monomeric recombinant) V255M | 9.6 | – |
| SF162 gp120, wild type (monomeric recombinant) H105Y | 3.8 | – |
| SF162 gp120, wild type (monomeric recombinant) G471R | 3.8 | – |
| CD4 mimetic miniprotein M48U1 (designed binder) | – | fold Kd relative to WT SF162 gp120 [2]: 1 fold; fold Kd relative to WT SF162 gp120 [3]: 1 fold; fold Kd relative to WT SF162 gp120 [4]: 1 fold; fold Kd relative to WT SF162 gp120 [5]: 1 fold |
